Results on one substance are retold here after patent US20100048412A1.

The test has as its target R19-Ava-…-NH2 (2). The test is described as follows: cell-based or functional assay.

A value given as a limit tells only on which side of the number the result lay.

As for “prostate-specific antigen (PSA), proteolytically active (from UniProt P07288 25-261) (enzyme)”, the suppression of peptide digestion by 420 nM PSA after addition of the protease inhibitor mix (AEBSF, Aprotinin, Elastatinal, GGACK) was above 90%.
